# Laboratory results taken from patent US11332512B2, “Peptides and combination of peptides for use in immunotherapy against various tumors” (Immatics Biotechnologies GmbH, priority 2015, dated 2022).
# Target: HLA-A*02:01 (Homo sapiens, UniProt P04439, D140Y/D185E/D98H/E176V/E277Q/G131W/G231S/I119V/I121R/I166T/I218V/L300P/L318F/N151K/N90K/P208A/P217A/Q86G/Q94H/R138H/R169H/T345S)
# Assay: MHC binding assay: UV-ligand exchange with beta2m ELISA (peptide exchange yield)
# Details: binding to HLA-A*02:01, β2m ELISA
# From the text: Candidate peptides for T cell based therapies according to the present invention were further tested for their MHC binding capacity (affinity). The individual peptide-MHC complexes were produced by UV-ligand exchange, where a UV-sensitive peptide is cleaved upon UV-irradiation, and exchanged with the peptide of interest as analyzed. Only peptide candidates that can effectively bind and stabilize the peptide-receptive MHC molecules prevent dissociation of the MHC complexes. To determine the yield of the exchange reaction, an ELISA was performed based on the detection of the light chain (β2m) of stabilized MHC complexes. The assay was performed as generally described in Rodenko et al. (Rodenko et al., 2006).
# 96 well MAXISorp plates (NUNC) were coated over night with 2 ug/ml streptavidin in PBS at room temperature, washed 4× and blocked for 1 h at 37° C. in 2% BSA containing blocking buffer. Refolded HLA-A*02:01/MLA-001 monomers served as standards, covering the range of 15-500 ng/ml. Peptide-MHC monomers of the UV-exchange reaction were diluted 100 fold in blocking buffer. Samples were incubated for 1 h at 37° C., washed four times, incubated with 2 ug/ml HRP conjugated anti-β2m for 1 h at 37° C., washed again and detected with TMB solution that is stopped with […]. Absorption was measured at 450 nm. Candidate peptides that show a high exchange yield (preferably higher than 50%, most preferred higher than 75%) are generally preferred for a generation and production of antibodies or fragments thereof, and/or T cell receptors or fragments thereof, as they show sufficient avidity to the MHC molecules and prevent dissociation of the MHC complexes.
row,Substance,"Peptide exchange (MHC class I binding score, peptide exchange yield)"
1,153 (KLVELEHTL; listed as Homo sapiens) [compound 153],+++ (= ≥50% = +++)
2,158 (YLDPLWHQL; listed as Homo sapiens) [compound 158],+++ (= ≥50% = +++)
3,160 (TLQEWLTEV; listed as Homo sapiens) [compound 160],+++ (= ≥50% = +++)
4,162 (GLLGNLLTSL; listed as Homo sapiens) [compound 162],+++ (= ≥50% = +++)
5,164 (MLIIRVPSV; listed as Homo sapiens) [compound 164],+++ (= ≥50% = +++)
6,167 (LVVDEGSLVSV; listed as Homo sapiens) [compound 167],+++ (= ≥50% = +++)
7,168 (VIFEGEPMYL; listed as Homo sapiens) [compound 168],+++ (= ≥50% = +++)
8,169 (ALADLSVAV; listed as Homo sapiens) [compound 169],+++ (= ≥50% = +++)
9,177 (ALINVLNAL; listed as Homo sapiens) [compound 177],+++ (= ≥50% = +++)
10,183 (ALSYILPYL; listed as Homo sapiens) [compound 183],+++ (= ≥50% = +++)
11,191 (AAIEIFEKV; listed as Homo sapiens) [compound 191],+++ (= ≥50% = +++)
12,195 (VIIQNLPAL; listed as Homo sapiens) [compound 195],+++ (= ≥50% = +++)
13,204 (SEWGSPHAAVP; listed as Homo sapiens) [compound 204],+++ (= ≥50% = +++)
14,210 (GLAGDNIYL; listed as Homo sapiens) [compound 210],+++ (= ≥50% = +++)
15,213 (ILAVDGVLSV; listed as Homo sapiens) [compound 213],+++ (= ≥50% = +++)
16,217 (LLWPSSVPA; listed as Homo sapiens) [compound 217],+++ (= ≥50% = +++)
17,218 (SLTGANITV; listed as Homo sapiens) [compound 218],+++ (= ≥50% = +++)
18,220 (ALSELERVL; listed as Homo sapiens) [compound 220],+++ (= ≥50% = +++)
19,223 (ALHPVQFYL; listed as Homo sapiens) [compound 223],+++ (= ≥50% = +++)
20,225 (FLPQPVPLSV; listed as Homo sapiens) [compound 225],+++ (= ≥50% = +++)
21,230 (KLLNMIFSI; listed as Homo sapiens) [compound 230],+++ (= ≥50% = +++)
22,231 (LLDDIFIRL; listed as Homo sapiens) [compound 231],+++ (= ≥50% = +++)
23,239 (VIIKGLEEITV; listed as Homo sapiens) [compound 239],+++ (= ≥50% = +++)
24,248 (VLMQDSRLYL; listed as Homo sapiens) [compound 248],+++ (= ≥50% = +++)
25,250 (LMQDSRLYL; listed as Homo sapiens) [compound 250],+++ (= ≥50% = +++)
26,262 (LLLEAVWHL; listed as Homo sapiens) [compound 262],+++ (= ≥50% = +++)
27,265 (FLLDKPQDLSI; listed as Homo sapiens) [compound 265],+++ (= ≥50% = +++)
28,271 (VLIEYNFSI; listed as Homo sapiens) [compound 271],+++ (= ≥50% = +++)
29,277 (KLQEELNKV; listed as Homo sapiens) [compound 277],+++ (= ≥50% = +++)

# Next, values leading:
row,"Peptide exchange (MHC class I binding score, peptide exchange yield)",Substance
1,+++ (= ≥50% = +++),148 (YLILSSHQL; listed as Homo sapiens) [compound 148]
2,+++ (= ≥50% = +++),150 (VLLDMVHSL; listed as Homo sapiens) [compound 150]
3,+++ (= ≥50% = +++),159 (QLGPVPVTI; listed as Homo sapiens) [compound 159]
4,+++ (= ≥50% = +++),165 (SLLDYEVSI; listed as Homo sapiens) [compound 165]
5,+++ (= ≥50% = +++),166 (LLGDSSFFL; listed as Homo sapiens) [compound 166]
6,+++ (= ≥50% = +++),173 (RLIDIYKNV; listed as Homo sapiens) [compound 173]
7,+++ (= ≥50% = +++),175 (SLLDLVQSL; listed as Homo sapiens) [compound 175]
8,+++ (= ≥50% = +++),179 (TLGEIIKGV; listed as Homo sapiens) [compound 179]
9,+++ (= ≥50% = +++),180 (RLYEEEIRI; listed as Homo sapiens) [compound 180]
10,+++ (= ≥50% = +++),181 (LLWAPTAQA; listed as Homo sapiens) [compound 181]
11,+++ (= ≥50% = +++),182 (GLQDGFQITV; listed as Homo sapiens) [compound 182]
12,+++ (= ≥50% = +++),190 (SLSTELFKV; listed as Homo sapiens) [compound 190]
13,+++ (= ≥50% = +++),193 (ALFHMNILL; listed as Homo sapiens) [compound 193]
14,+++ (= ≥50% = +++),200 (IMPTFDLTKV; listed as Homo sapiens) [compound 200]
15,+++ (= ≥50% = +++),207 (KLFETVEEL; listed as Homo sapiens) [compound 207]
16,+++ (= ≥50% = +++),211 (LLTTVLINA; listed as Homo sapiens) [compound 211]

row,"Peptide exchange (MHC class I binding score, peptide exchange yield)",Substance
1,+++ (= ≥50% = +++),214 (ALFETLIQL; listed as Homo sapiens) [compound 214]
2,+++ (= ≥50% = +++),224 (LLFDWSGTGRADA; listed as Homo sapiens) [compound 224]
3,+++ (= ≥50% = +++),226 (SLAGNLQEL; listed as Homo sapiens) [compound 226]
4,+++ (= ≥50% = +++),228 (SLLELDGINLRL; listed as Homo sapiens) [compound 228]
5,+++ (= ≥50% = +++),237 (ALLEQTGDMSL; listed as Homo sapiens) [compound 237]
6,+++ (= ≥50% = +++),241 (KQFEGTVEI; listed as Homo sapiens) [compound 241]
7,+++ (= ≥50% = +++),244 (NVAEIVIHI; listed as Homo sapiens) [compound 244]
8,+++ (= ≥50% = +++),249 (YLYQILQGI; listed as Homo sapiens) [compound 249]
9,+++ (= ≥50% = +++),251 (LLWGNLPEI; listed as Homo sapiens) [compound 251]
10,+++ (= ≥50% = +++),253 (KLLAVIHEL; listed as Homo sapiens) [compound 253]
11,+++ (= ≥50% = +++),256 (FLNDIFERI; listed as Homo sapiens) [compound 256]
12,+++ (= ≥50% = +++),261 (GLAALAVHL; listed as Homo sapiens) [compound 261]
13,+++ (= ≥50% = +++),270 (TLLTFFHEL; listed as Homo sapiens) [compound 270]
14,+++ (= ≥50% = +++),274 (TLYNPERTITV; listed as Homo sapiens) [compound 274]
15,+++ (= ≥50% = +++),276 (RMPTVLQCV; listed as Homo sapiens) [compound 276]
16,+++ (= ≥50% = +++),278 (VLEDKVLSV; listed as Homo sapiens) [compound 278]
